Experimental data as given in patent publication US20060189528A1 (EVOGENIX, published 2006).
Positions count from the first letter of the chain named. In names and notes the source's numbering stands.

T1: RANKL (human, UniProt O14788 140-317, limits assumed)
T1 construct: also called Rank ligand
T1 sequence (looked up): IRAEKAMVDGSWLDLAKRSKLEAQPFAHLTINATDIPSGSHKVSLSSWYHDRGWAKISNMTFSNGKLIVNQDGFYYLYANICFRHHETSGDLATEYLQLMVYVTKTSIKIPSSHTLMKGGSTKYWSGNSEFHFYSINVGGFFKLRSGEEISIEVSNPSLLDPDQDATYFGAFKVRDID

B1: OVP I115K (Fc fusion)
chain: ETFPPKYLHYDEETSHQLLCDKCPPGTYLKQHCTAKWKTVCAPCPDHYYTDSWHTSDECLYCSPVCKELQYVKQECNRTHNRVCECKEGRYLEKEFCLKHRSCPPGFGVVQAGTPERNTVCKRCPDGFFSNETSSKAPCRKHTNCSVFGLLLTQKGNATHDNICSGNSESTQK
notes: Tested as C-terminal Fc-linked dimer with FLAG tag, from HEK 293 EBNA cells; signal peptide 1-21 processed; not shown: human Fc domain of vector pAPEX-3.Fc; C-terminal FLAG tag
B2: OVP I115M, R122G (Fc fusion)
chain: B1 chain with K94M, R101G
notes: Tested as C-terminal Fc-linked dimer with FLAG tag, from HEK 293 EBNA cells; signal peptide 1-21 processed; also called I115M plus: R122G; not shown: human Fc domain of vector pAPEX-3.Fc; C-terminal FLAG tag
B3: OVP I115M, F128S (Fc fusion)
chain: B1 chain with K94M, F107S
notes: Tested as C-terminal Fc-linked dimer with FLAG tag, from HEK 293 EBNA cells; signal peptide 1-21 processed; also called I115M plus: F128S; not shown: human Fc domain of vector pAPEX-3.Fc; C-terminal FLAG tag
B4: OVP I115A (Fc fusion)
chain: B1 chain with K94A
notes: as for B1
B5: OVP I115L (Fc fusion)
chain: B1 chain with K94L
notes: as for B1
B6: OVP I115M, F128L (Fc fusion)
chain: B1 chain with K94M, F107L
notes: Tested as C-terminal Fc-linked dimer with FLAG tag, from HEK 293 EBNA cells; signal peptide 1-21 processed; also called I115M plus: F128L; not shown: human Fc domain of vector pAPEX-3.Fc; C-terminal FLAG tag
B7: OVP I115M (Fc fusion)
chain: B1 chain with K94M
notes: Ribosome display selected; tested as C-terminal Fc-linked dimer with FLAG tag, from HEK 293 EBNA cells; signal peptide 1-21 processed; also called 1R17; not shown: human Fc domain of vector pAPEX-3.Fc; C-terminal FLAG tag
B8: OVP I115V (Fc fusion)
chain: B1 chain with K94V
notes: as for B1
B9: OVP I115G (Fc fusion)
chain: B1 chain with K94G
notes: as for B1
B10: OVP N102D (Fc fusion)
chain: B1 chain with N81D, K94I
notes: as for B1
B11: OVP I115M, R122Q (Fc fusion)
chain: B1 chain with K94M, R101Q
notes: Tested as C-terminal Fc-linked dimer with FLAG tag, from HEK 293 EBNA cells; signal peptide 1-21 processed; also called I115M plus: R122Q; not shown: human Fc domain of vector pAPEX-3.Fc; C-terminal FLAG tag
B12: OVP I115T, K51R, S167G (Fc fusion)
chain: B1 chain with K30R, K94T, S146G
notes: as for B1
B13: OVP I115T, K51R, R111H (Fc fusion)
chain: B1 chain with K30R, R90H, K94T
notes: as for B1
B14: OVP I115D (Fc fusion)
chain: B1 chain with K94D
notes: as for B1
B15: OVP I115M, L40S (Fc fusion)
chain: B1 chain with L19S, K94M
notes: Tested as C-terminal Fc-linked dimer with FLAG tag, from HEK 293 EBNA cells; signal peptide 1-21 processed; also called R23; not shown: human Fc domain of vector pAPEX-3.Fc; C-terminal FLAG tag
B16: OVP I115Y (Fc fusion)
chain: B1 chain with K94Y
notes: as for B1
B17: OVP I115M, R122S (Fc fusion)
chain: B1 chain with K94M, R101S
notes: Tested as C-terminal Fc-linked dimer with FLAG tag, from HEK 293 EBNA cells; signal peptide 1-21 processed; also called I115M plus: R122S; not shown: human Fc domain of vector pAPEX-3.Fc; C-terminal FLAG tag
B18: OVP I115M, F128A (Fc fusion)
chain: B1 chain with K94M, F107A
notes: Tested as C-terminal Fc-linked dimer with FLAG tag, from HEK 293 EBNA cells; signal peptide 1-21 processed; also called I115M plus: F128A; not shown: human Fc domain of vector pAPEX-3.Fc; C-terminal FLAG tag
B19: OVP I115S (Fc fusion)
chain: B1 chain with K94S
notes: as for B1
B20: OVP I115M, N139D (Fc fusion)
chain: B1 chain with K94M, N118D
notes: as for B1
B21: OVP I115T, K51R (Fc fusion)
chain: B1 chain with K30R, K94T
notes: as for B1
B22: OVP I115M, F128T (Fc fusion)
chain: B1 chain with K94M, F107T
notes: Tested as C-terminal Fc-linked dimer with FLAG tag, from HEK 293 EBNA cells; signal peptide 1-21 processed; also called I115M plus: F128T; not shown: human Fc domain of vector pAPEX-3.Fc; C-terminal FLAG tag
B23: OVP I115N (Fc fusion)
chain: B1 chain with K94N
notes: as for B1
B24: OVP I115M, F128I (Fc fusion)
chain: B1 chain with K94M, F107I
notes: Tested as C-terminal Fc-linked dimer with FLAG tag, from HEK 293 EBNA cells; signal peptide 1-21 processed; also called I115M plus: F128I; not shown: human Fc domain of vector pAPEX-3.Fc; C-terminal FLAG tag
B25: OVP I115M, R122D (Fc fusion)
chain: B1 chain with K94M, R101D
notes: Tested as C-terminal Fc-linked dimer with FLAG tag, from HEK 293 EBNA cells; signal peptide 1-21 processed; also called I115M plus: R122D; not shown: human Fc domain of vector pAPEX-3.Fc; C-terminal FLAG tag
B26: OVP I115R (Fc fusion)
chain: B1 chain with K94R
notes: as for B1
B27: OVP I115W (Fc fusion)
chain: B1 chain with K94W
notes: as for B1
B28: OVP I115M, R122N (Fc fusion)
chain: B1 chain with K94M, R101N
notes: Tested as C-terminal Fc-linked dimer with FLAG tag, from HEK 293 EBNA cells; signal peptide 1-21 processed; also called I115M plus: R122N; not shown: human Fc domain of vector pAPEX-3.Fc; C-terminal FLAG tag
B29: OVP I115M, R122E (Fc fusion)
chain: B1 chain with K94M, R101E
notes: Tested as C-terminal Fc-linked dimer with FLAG tag, from HEK 293 EBNA cells; signal peptide 1-21 processed; also called I115M plus: R122E; not shown: human Fc domain of vector pAPEX-3.Fc; C-terminal FLAG tag
B30: OVP I115E (Fc fusion)
chain: B1 chain with K94E
notes: as for B1

target: T2, TRAIL (human, UniProt P50591 114-281); assay: ELISA on coated TRAIL, Fc-linked dimer
T2 construct: also called TNF-related apoptosis inducing ligand; recombinant human TRAIL (R&D Systems)
Method: (§1) Purified mammalian-expressed OVP proteins are tested for binding to RANKL and TRAIL by ELISA. Wells are coated with RANKL at 5 μg/mL or TRAIL at 10 μg/mL in PBS O/N at 4° C., rinsed with PBS, blocked with 0.5% casein in PBS at room temp for 2 h, then rinsed again with PBS. Concentrations of OVPs to be tested are normalised to around 10 nM and then 50 μL applied to the antigen-coated wells in serial doubling dilutions over 6-7 wells for 1 h. […] All washes in between binding incubations are 3 times in PBS/0.05% Tween, then 3 times with PBS. Detection of bound OVPs is achieved with incubation of 50 μL anti-FLAG at […] for 20 min then 50 μL goat anti-mouse-peroxidase conjugate (BioRad) at 1:1500 for 20 min. TMB is used as enzyme substrate and then binding signal is measured at A_{450 nm}.

T2 sequence (P50591 114-281 limits assumed): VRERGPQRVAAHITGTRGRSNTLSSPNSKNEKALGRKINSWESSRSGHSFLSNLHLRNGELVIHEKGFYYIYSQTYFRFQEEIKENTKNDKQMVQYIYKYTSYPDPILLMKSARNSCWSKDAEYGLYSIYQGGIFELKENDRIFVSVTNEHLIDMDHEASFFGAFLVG

| binding result | Binder |
| --- | --- |
| no binding | B1 |

target: T1, RANKL; assay: ELISA on coated RANKL, Fc-linked dimers; EC50 ratio to OPG(22-194).Fc wt; printed without parentheses
Method: as §1

| RANKL fold change cf wt [fold] | Binder |
| --- | --- |
| 1 | B2 |
| 1 | B3 |

target: T1, RANKL; assay: ELISA on coated RANKL, Fc-linked dimers; EC50 ratio to OPG(22-194).Fc wt; increase in binding (lower EC50)
Method: as §1

| RANKL fold change cf wt [fold] | Binder |
| --- | --- |
| 2.25 | B4 |
| 1.75 | B5 |
| 1.2 | B6 |
| 1.2 | B7 |
| 1.5 | B8 |
| 2.1 | B9 |
| 1.1 | B10 |
| 2.5 | B11 |
| 1.5 | B12 |
| 1.5 | B13 |
| 1.5 | B14 |
| 1.1 | B15 |
| 1.1 | B16 |
| 1.5 | B17 |
| 1.2 | B18 |

target: T1, RANKL; assay: ELISA on coated RANKL, Fc-linked dimers; EC50 ratio to OPG(22-194).Fc wt; reduction in binding (higher EC50)
Method: as §1

| RANKL fold change cf wt [fold] | Binder |
| --- | --- |
| 1.4 | B19 |
| 1.75 | B20 |
| 1.75 | B21 |
| 60 | B1 |
| 3.3 | B22 |
| 1.1 | B23 |
| 2.1 | B24 |
| 6 | B25 |
| 2.3 | B26 |
| 1.4 | B27 |
| 1.1 | B28 |
| 1.2 | B29 |
| 2.25 | B30 |

target: T2, TRAIL; assay: ELISA on coated TRAIL, Fc-linked dimers; EC50 ratio to OPG(22-194).Fc wt; reduction in binding (higher EC50)
Method: as §1

| TRAIL fold change cf wt [fold] | Binder |
| --- | --- |
| 2.5 | B4 |
| 3.1 | B19 |
| 4.3 | B5 |
| 60 | B20 |
| 7 | B22 |
| 25 | B7 |
| 4 | B8 |
| 23 | B25 |
| 12.5 | B2 |
| 3 | B11 |
| 15 | B12 |
| 50 | B3 |
| 7.5 | B13 |
| > 125 | B14 |
| > 250 | B15 |
| 3 | B16 |
| 3.5 | B17 |
| 5 | B27 |
| > 250 | B28 |
| > 250 | B29 |
| 2 | B18 |
| > 250 | B30 |

target: T2, TRAIL; assay: ELISA on coated TRAIL, Fc-linked dimers; EC50 ratio to OPG(22-194).Fc wt; reduction in binding (higher EC50); # by extrapolation
Method: as §1

| TRAIL fold change cf wt [fold] | Binder |
| --- | --- |
| 250 | B6 |
| 390 | B23 |
| 250 | B24 |
| > 125 | B9 |
| 50 | B26 |

target: T2, TRAIL; assay: ELISA on coated TRAIL, Fc-linked dimers; EC50 ratio to OPG(22-194).Fc wt; printed in parentheses (reduction in binding, higher EC50)
Method: as §1

| TRAIL fold change cf wt [fold] | Binder |
| --- | --- |
| 0.8 | B21 |
| 1 | B10 |
